One molecule from patent publication US20240117030A1 (Pfizer, published 2024) can be followed below.

Holding throughout (experiment): cell-based or functional assay
For experiment [1], the target named is T1, recombinant human IL-4 (human, UniProt P05112 25-153).
T1 sequence (looked up): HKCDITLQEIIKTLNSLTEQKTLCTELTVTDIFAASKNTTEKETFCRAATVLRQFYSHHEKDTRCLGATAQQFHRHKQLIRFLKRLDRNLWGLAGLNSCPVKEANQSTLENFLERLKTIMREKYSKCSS

Experiment [2] concerns the target recombinant human IL-13 (human, UniProt P35225 35-146).
In experiment [3] the target is T2, recombinant human IL-33 (human, UniProt O95760 112-270, limits assumed).
T2 sequence (looked up): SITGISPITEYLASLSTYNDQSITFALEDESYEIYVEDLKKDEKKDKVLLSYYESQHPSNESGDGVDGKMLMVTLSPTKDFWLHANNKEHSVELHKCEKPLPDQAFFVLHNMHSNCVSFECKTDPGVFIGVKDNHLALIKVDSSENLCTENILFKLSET

Sequence of recombinant human IL-13 (P35225 35-146 limits assumed): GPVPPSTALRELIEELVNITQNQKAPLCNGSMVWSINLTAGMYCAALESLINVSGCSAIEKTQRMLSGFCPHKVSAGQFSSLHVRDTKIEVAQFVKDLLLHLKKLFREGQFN

B1: IL13433-1042 (other)
heavy: EVQLVESGGGLVQPGGSLRLSCAASGFTFSSYWMYWVRQAPGKGLEWVAAITPNAGEDYYPESVKGRFTISRDNAKNSLYLQMNSLRAEDTAVYYCARGQYYYTKYSLGYWGQGTLVTVSSASTKGPSVFPLAPSSKSTSGGTAALGCLVKDYFPEPVTVSWNSGALTSGVHTFPAVLQSSGLYSLSSVVTVPSSSLGTQTYICNVNHKPSNTKVDKKVEPKSCRKTHTCPRCPAPEAAGAPSVFLFPPKPKDTLMISRTPEVTCVVVDVSHEDPEVKFNWYVDGVEVHNAKTKPREEQYNSTYRVVSVLTVLHQDWLNGKEYKCKVSNKALPAPIEKTISKAKGQPREPQVYTLPPSREEMTKNQVSLTCLVKGFYPSDIAVEWESNGQPENNYKTTPPVLDSDGSFFLYSRLTVDKSRWQQGNVFSCSVLHEALHSHYTQKSLSLSPGK
chain 1: DIQMTQSPSSLSASVGDRVTITCKASESVDHFGWSLVHWYQQKPGKAPKLLIYRASNLESGVPSRFSGSGSGTDFTLTISSLQPEDFATYYCQQSNEDPWTFGGGTKVEIKRTVAAPSVFIFPPSDEQLKSGTASVVCLLNNFYPREAKVQWKVDNALQSGNSQESVTEQDSKDSTYSLSSTLTLSKADYEKHKVYACEVTHQGLSSPVTKSFNRGECGGGGSEVTLRESGPALVKPTQTLTLTCTFSGFSLSNFGEGLSWIRQPPGKGLEWLAHIYWDDDKRYNPSLKSRLTISKDTSRNQVVLTMTNMDPVDTATYYCARRETVFYWYFDVWGQGTTVTVSSASTKGPSVFPLAPSSKSTSGGTAALGCLVKDYFPEPVTVSWNSGALTSGVHTFPAVLQSSGLYSLSSVVTVPSSSLGTQTYICNVNHKPSNTKVDKKVEPKSCEKTHTCPECPAPEAAGAPSVFLFPPKPKDTLMISRTPEVTCVVVDVSHEDPEVKFNWYVDGVEVHNAKTKPREEQYNSTYRVVSVLTVLHQDWLNGKEYKCKVSNKALPAPIEKTISKAKGQPREPQVYTLPPSREEMTKNQVSLTCEVKGFYPSDIAVEWESNGQPENNYKTTPPVLDSDGSFFLYSKLTVDKSRWQQGNVFSCSVLHEALHSHYTQKSLSLSPGK
light 1: DIQMTQSPSSLSASVGDRVTITCRASQPIHNHLDWYQQKPGKAPKLLIYFGKNLQEGVPSRFSGSGSGTDFTLTISSLQPEDFATYYCFQYKKGWSFGGGTKVEIKRTVAAPSVFIFPPSDEQLKSGTASVVCLLNNFYPREAKVQWKVDNALQSGNSQESVTEQDSKDSTYSLSSTLTLSKADYEKHKVYACEVTHQGLSSPVTKSFNRGEC
light 2: DIQMTQSPSSLSASVGDRVTITCRASQSVDEEGDSYMNWYQQKPGKAPKLLIYAASNLESGVPSRFSGSGSGTDFTLTISSLQPEDFATYYCQQSNEDPPTFGGGTKVEIKRTVAAPSVFIFPPSDEQLKSGTASVVCLLNNFYPREAKVQWKVDNALQSGNSQESVTEQDSKDSTYSLSSTLTLSKADYEKHKVYACEVTHQGLSSPVTKSFNRGEC
chain 2: EVQLVESGGGLVQPGGSLRLSCAASGFTFSSYAMSWVRQAPGKGLEWVASISSGDTTYYPDSVKGRFTISRDNAKNSLYLQMNSLRAEDTAVYYCARNEGYYFGLTLWGQGTLVTVSSASTKGPSVFPLAPSSKSTSGGTAALGCLVKDYFPEPVTVSWNSGALTSGVHTFPAVLQSSGLYSLSSVVTVPSSSLGTQTYICNVNHKPSNTKVDKKVEPKSC
Take B1: in experiment [1], the “IL-4 Induced CD23 Expression, potency of cytokine neutralization” value came out at 0.0071 nM. Further, the “IL-13 Induced CD23 Expression, potency of cytokine neutralization” value in experiment [2] worked out at 0.0124 nM. Further, in experiment [3], the “IL-33 WT Activation of SEAP Reporter Cells, potency of cytokine neutralization” value came out at 0.028 nM.
